Measured values published in the nanobody polyreactivity screen of Harvey et al. (2022).

Assay: yeast display, Sf9 membrane polyspecificity reagent, FACS + sequencing; frameworks hold sequencing errors
Procedure, shortened: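 In a synthetic yeast display library (Saccharomyces cerevisiae BJ5465), nanobody expression was induced with galactose for 36–48 hours. FACS gates were set low and high (top ~1%) using anti-HA fluorescence for expression and streptavidin fluorescence for binding of the Sf9 membrane reagent. Each polyreactivity label is drawn from the gate of origin.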

Sequence	polyreactivity (PSR sort gate)
HVPLVESGGGLVQAGGSLRLSCAASGFTFRANGMGWYRQAPGKERELVATIPSGGTTNYADSVKGRFTISRDNAKKTVYLQMNSLKPEDNAVYDCAASLGANGFQGRMYYWGQGTQVTVSS	low polyreactivity
QVQLVESGGGLVHAGGSLRLSCAASGTIFYRNAMGWYRQAPGKERELVAAITSRGGRTYYADSVKGRFTISRDNAKNTVYLQMNSLKPEDTAVYDCNKRYVYSTSDYDYWGQGTQVTVSS	high polyreactivity
QVQLVESGGGLFQEGGSLRLSCAASGYTFKGNAMGWYRQAPGKDWELVAAISRSGASTYYADSVKGRFTISRDNAKNTVYLQMNSLKPEDTAVYYCAAEWYRGGEYRRYDYWGQGTQVTVSS	high polyreactivity
QVQLVESGGGLVQAGGSLRLSCAASGRIFQRYAMGWYRQSPGKERELVAGITSSGGSTYYADSVKGRFTISRDNAKNTVYLQMNSLKPEDTAVSYCNAGGELCYYGYRAGCTTRSYDYWGQGTLVTVSS	low polyreactivity
QVQLEDSGGGLFQAGGSLRLSCAASGNTFPVSYTMGWYIQAHRKEREFVAAISKDGGRTYYADSVKGRFTISRDNAKNTVYLQMNSLKPEDTAVYYCAARYSSSRGLSSEYWGQCTQVTVSS	high polyreactivity
QVQLVESGGGLVQAGGSLRLSCAASGSIFVRNAMGWYRQAPGKERELVAAISGSGGRTYYADSVKGRFTISRDIAKNTVYLQMNSLKPEDTAVYYCARVPSGQLEYDYWGQGTQVTVSS	high polyreactivity
QVQLVESGGGLVQAGGSLRLSCAASGFIILINVMGWYRQAPGKERELVAVITGGGTTNYADSVKGRFTFSRDNAKNTVYLQMNSLKPEDTAVYYCAVDAGAGDNDYWGQGTQVTVSS	low polyreactivity
QVQLVESGGGLVQAGGSLRLSCAASGYIIFTNAMGWYRQAPGKERQLVAAISTIDGSTYYADSVKGRFTISRDNAKNTVYLQMNSLKPEDTAVYYCATDTPFISSLAYDYWGQGTQVTVSS	low polyreactivity
QVQLVESGGGVVQAGGSLRLSCAAYGFIYKQNAMGWYRQAPGKERELVATITRGGDTKYADSVKGRFTISRDNAKNTVYLLMNSLKPEDTAVEYCAARYTPSSSIYRFYNFYGYDYWGQGTQVIVSS	high polyreactivity
QVQLVESGGGLVQAGGSLRLSCAASGRTFKRYAMGWYRQAPGKERELVAAISWSGTSTHYADSVKGRFTISRDNAKNTVYLQMNSLKPEDTAVYYCAARRYPVLNYDYWGQGTQVNVSS	high polyreactivity
QVQLVESGGGLVQAGGSLRISCVASARTFYRYAMGWYRQAPGKERELVAVITRGGSTYYADSVKGRFTISRDNAKNPVYLQMNSLKPEDTAVYFCNADGRVQRKYDYWGQGTQVTVSS	high polyreactivity
QVQLVESGGGLVQAGGSLRLSCAASGRTFQLYAMGWYRQAPGKERELVAAITTRADRTYYADSVKGRFTISRDNAKNTVYLQLNSVKPEDTAVYYCAASYSRTYFREDYCGQGTQVTVSS	low polyreactivity
QVQLVESGGGLVQAGGSLRLSCAASGSIITRNAMGWYRQAPGKERELVATIRYRGGSTYYADSVKGRFTISRDNAKNTVFLQMNSLKPEDTAVYYCAARRSHPPDPRFRYGYWGQGTQVTVSS	high polyreactivity
QVQLVESGGGLVQAGGSLRLSCAASGFFFDEYAMGWYRLAPGKERELVAAIDVGGSTYYADSVKGRFTISRDNAKNTVYLQMNSLKPEDTAVYYCARDAFSVSDFSYASIEYDYWGQGTQVTVSS	low polyreactivity
QVQLVESGGGLVQAGGSLSISCAASGLTFSYYAMGWYRQAPGKERELGAAIAGRTGRPYYADSVKGRFTISRDNAKNTVYLQMNSLKPEDTAVFYSAAGYTFSRYDDDYWGQGTQVTVSS	low polyreactivity
QVQLVESGGGLVQAGGSLRLSCAASGRTFKYYAMGWYRQAPGKERELVAAINSGGITYYADSVKGRFTISRDNAKNTVYLQMNSLKPEDTAVYYCAKVWKIGVLRYPSYGYYYWGQGTQVTVSS	high polyreactivity

Sequence	polyreactivity (PSR sort gate)
QVQLVESGGGLVQAGGSLRLNSAASGIIFPRYAMGWYSQAPGKEWEVVAGFTSSGGTYYADSVKGRFTISRDHAKNTVYLQMNSLIPEDTAVYYCAARQGNLRRGVRWFNYWGQGTQVTVSS	high polyreactivity
QVQHVESGGGLVQAGGSLRLSCAASGSTFDSNDMGWYRQAPGKEWELVPGITWSGASTYYADSVKGRFTISRDNAKNTVYLQMNSLKPEDTAVYYCAAGPWGTGHYVQGPVYYYRYDYWGQGTQVTVSS	low polyreactivity
QVQHVESGGGLVQAGGSLRLSCAASGSTFAFNTMGWYRQSPGKEWELVAGISSNGGRTYYADSVNGRFTISRDNAKNTVYLQMNSLKPEDTAVYYCNRASVFHYRWYYYWGQGTQVTVSS	high polyreactivity
QVQLVESGGGLVQEGGSLRLSCAASGRTFKKYAMGWYRQAPGKERELVAAITGSGGSTYYADSVKGRFTISRDNAKNTVYLQMNSLKPEDSAVYYCAAYAYGVWHSQDGGNYWGQGTQVTVSS	low polyreactivity
QVQLVESGGRLVQAGGSLRLSCAASGSTFTRYVMGWYRQAPGKERELVAVISSSGGSTYYADSVKGRFTISRDNAKNTVYLQMNSLKPEDTAVYYCAARYSAKHYGYGYWGQGTQVTVSS	high polyreactivity
QVQLVESGGGLVQAGGSLRLSCAASGSIFSPNAMGWYRQAPGKERQLVAAIRSGGSTYYADSVKGRFTISRDNAKNSVYLQMNSLKPADTAVYYCAADTYTYYYYLARYYYWGQGTQVTVSS	low polyreactivity
QVQLVESGGGLVQAGGSLRLICAASGFTFGGYAMGWYRPAPVKERELVAAINGNGGRTYSADSVKGRFTISRDKAKNTVYLQMISLKPEDTAVYYCYAAYRQHYRYYYWGQGTQVTVSS	high polyreactivity
QVQLVESGGGLVQAGGSLRLSCAASGRTFSGYAMGWYRQAPGKERELVAAISNSGGNTYYADSVKGRFTISRDNAKNTVYLQMNSLKAEDTAVYYSAVDSSSPYDYWGQGTQVTVSS	high polyreactivity
QLQLVESGGGLVQAGGSLRLSCAASGRIFWPNALGWYRQAPGKEREFVAAIRWSSDRTYYADSVKGRFTISRDNAKNTVYLQRNSLKPEDTAVYYCNAVRYVISKYDYWGQGTQVTVSS	high polyreactivity
QVQLVESGGGLVQAGGSLRLSCAASGSTFDPNAMGWYRQAPRKEREFVAAIRVSGDNTYYADSVKGRFTISRDNAKNTVYLLMNSLKPEDTAVYYCAATGTVLGSVDYWGQGTQVTVSS	low polyreactivity
QVQLVESGKGLVQAGGILRLSCAASGLIFGFNAMGWYRQAPGKERELVAAIYGSGGTTYYADSVKGRFTISRDNAKNTVYLQMNSLKPEDTAVYYCAGEYIYNVQFSWPKTPAFDYWGQGTLVTVSS	low polyreactivity
QVQLVESGGGLVQAGGSLRLSCAASGFNFPYNAMGRYRQAPGKERELVAAITSGSNTYYADSVKGRFTISRDNAKNTVYLQMNSLKPEDTAVYYCAARGHGAYGYWGQGTQVTVSS	low polyreactivity
QVQLVESGGGLVQAGGSLRLSCAASGIIFHLYTMGWYRQAPGKERELVAAISNNGGRTYYADSVKGRFTISRDNAKNTVYLQMNSLKPEDTAVYYCAKYLSPGERHSYDYWGQGTQVTVSS	high polyreactivity
QVQLVESGGGLVQAGGSLRLSCAASGSIFSVYAMGWYRQAPGKERELVAAISRGDSTYYADSVKGRFTISRDNAKNTVYLQMNSLKPEDTAVYYCAKAYLRYYDGPYDYWGQGTQVTVSS	low polyreactivity
QVQLVESGGGLVQAGGSLRLSCAASGSTFRPYVMGWYRQAPGKERELVAAISWRGGTTYYADSVKGRFTISRDNAKNTVYLQMNSLKPEDTAVYYCAARGDQGVPVARRYDYWGQGTQVTVSS	high polyreactivity
